{"source": "patent US20140079722A1", "about": "“EXTRACELLULAR TARGETED DRUG CONJUGATES” (CENTROSE, LLC, priority 2011, published 2014)", "molecules": {"B1": {"name": "M53-PEG24-CEN09-106: Class 1 EDC: antibody M53 conjugated to linker-ready agent PEG24-CEN09-106 (scillarenin, 4-amino-xyloside, PEG24) (conjugate)", "heavy": "EVQLVESGGGLVQPKGTLKLSCAASGFSFNTHAMNWVRQAPGKSLEWVARTMSKSNNYATYYADSVKDRFIIRADDSQSMLYLQMNNLKTEDTAMYYCVRDDPKRGMDYWGQGTSVTVSSAKTTPPSVYPLAPGSAAQTNSMVTLGCLVKGYFPEPVTVTWNSGSLSSGVHTFPAVLQSDLYTLSSSVTVPSSTWPSETVTCNVAHPASSTKVDKKIE", "light": "GIVMSQSPSSLAVSVGEKVTMSCKPSQSLLYSRNQKIYLAWYQQKPGQSPKLLIYWASTRESGVPDRFTGSGSGTDFTLIISSVRAEDLAVYYCQQYYNYPLTFGAGTKLELKRADAAPTVSIFPPSSEQLTSGGASVVCFLNNFYPKDINVKWKIDGSERQNGVLNSWTDQDSKDSTYSMSSTLTLTKDEYERHNSYTCEATHKTSTSPIVKSFNR"}}, "key": {"[1]": {"test_system": "H520", "assay": "In vitro cancer cell cytotoxicity (CellTiter-Glo cell viability)", "type": "cell-based, human", "from_the_text": "EDCs were constructed using linker-ready agents PEG24-CEN09-106, PEG24-CEN09-107, PEG24-CEN10-110 and PEG24-CEN-319. As described in Example 1, linker-ready agent PEG24-CEN-319 contain digitoxigenin while the others contain scillarenin. Linker-ready agents PEG24-CEN09-106, PEG24-CEN09-107, PEG24-CEN10-110 all use different linkers. Specifically, PEG24-CEN09-106 and PEG24-CEN09-107 have different sugars in the linker, while PEG24-CEN10-110 contains a longer linker that includes a primary amine.\nAll of the cell lines below, except H520, express the Na,K-ATPase with the dysadherin subunit and so present the target of the antibody and drug in close proximity."}, "[2]": {"assay": "Pharmacokinetics and serum stability, antibody and drug specific ELISA", "type": "in vivo, Balb/c mice", "conditions": "for serum half-life of the antibody portion / serum half-life of the steroid drug portion: Balb/c mice; for serum half-life of the antibody portion: EDC drug loading of 3; for serum half-life of the steroid drug portion: drug loading of 3; for serum stability half-life of the EDC: from ratio of slopes of serum decay of drug and antibody portions", "experimental": "The steroid drug pharmacokinetics of M53-PEG24-CEN09-106 were measured using the drug specific ELISA described below. The comparison between the two ELISA results (antibody concentrations minus drug concentrations) was used to determine the rate of drug breakdown and thus examine M53-PEG24-CEN09-106 stability.\nSerum was isolated from blood samples acquired by retro-orbital blood collection at 1, 2, 4, 8, 16, 26, and 40 days post-injection. […] Plasma concentrations of the steroid drug in M53-PEG24-CEN09-106 were measured as follows. Antigen coated ELISA plates were washed (×3) with PBS pH 7, blocked 30 min with PBS pH 7 containing 1% NFDM (PBS+NFDM), and then washed (×3) with PBS, pH 7. Diluted serum samples and standard curves of M53-PEG24-CEN09-106 were prepared in the above blocking buffer and applied to coated wells, incubated 30 min at RT, and the wells were washed (×3) with PBS, pH 7. Biotinylated 25C2E3 (a monoclonal IgG1 antibody specific for the steroid portion of PEG24-CEN09-106 and conjugated to biotin [Thermo Scientific, PN 21911]) was diluted to 100 ng/mL in PBS+NFDM and added (100 uL) to each well, incubated 30 min at RT, and the wells washed (×3) with PBS, pH 7. PNPP at 1 mg/mL in 1M DEA with 50 mM MgCl2, pH 9.8 was added (100 uL per well), and the absorbance at 405 nm was determined using a Wallac Victor^2 Model 1420-041 assay plate reader (Perkin Elmer, Gaithersburg, Md.) every 5 minutes for a total of 6 reads.\nFor both ELISAs, absorbance values from known standards were plotted as absorbance over time, generating a linear slope for each concentration. The slopes generated were then plotted against the respective concentrations of the standards, creating a second linear plot. The absorbance values for the unknown serum samples were plotted over time, establishing a slope for unknown sample. The linear estimate from the slope versus concentration plot was then used to extrapolate concentrations for each unknown sample based on their slope.\nTo determine serum stability of the intact EDC (drug release from the antibody over time) in these samples, the ratio of the slopes of serum decay of the drug portion to the serum decay of the antibody portion were calculated."}, "[3]": {"assay": "Single-dose tolerated dose (MTD), tail vein", "type": "in vivo, BALB/c mice", "experimental": "EDC M53-PEG24-CEN09-106 preparations with drug loading of 2, 5 or 9 drugs per antibody were administered to BALB/c mice (Harlan Laboratories, n=1) in a single dose of 25, 50, 100 and 200 mg/kg via the tail vein to determine single-dose MTDs. Mice were monitored daily for 24 days, and both weight and clinical observations were recorded (weight measured at least twice a week and evaluation for overt signs of toxicity conducted at least twice a day)."}, "[4]": {"test_system": "PANC-1 xenograft", "assay": "PANC-1 xenograft model, alone and with gemcitabine", "type": "in vivo, C.B-17/IcrHsd-Prkdc scid Lyst bg mice", "experimental": "A disease model of pancreatic cancer was established by implanting 5×10^6 PANC-1 cells in 100 μL DMEM into the left flank of 7 week old female C.B-17/IcrHsd-Prkdc^scidLyst^bg mice. Mice were then treated with M53-PEG24-CEN09-106 with a drug loading of 8 and/or gemcitabine when the tumor size in groups of 3 animals averaged ˜500 mm^3. Treatments consisted of either vehicle control, M53-PEG24-CEN09-106 at 0.2, 1 and 5 mg/kg, with and without 60 mg/kg gemcitabine or 60 mg/kg gemcitabine alone and consisted of multiple injections using the M53-PEG24-CEN09-106 schedule of one injection every 7 days for 3 injections (q7d×3) administered i.v. and the gemcitabine schedule of one injection every 3 days for 5 injections (q3d×5) administered i.p. Tumor volumes were measured for each group using calibrated vernier calipers and plotted against first day of tumor implant for 28 days post-initial dose, graphed and shown in FIG. 6."}, "[5]": {"test_system": "Panc-1 xenografts", "assay": "Panc-1 subcutaneous xenograft model (tumor fragments)", "type": "in vivo, female HRLN nu/nu mice", "conditions": "drug loading of 7; 1, 5, 15 mg/kg iv Q3Dx7 or Q7Dx3", "experimental": "In another study, the Panc-1 subcutaneous xenograft model was used to evaluate antitumor activity of M53-PEG24-CEN09-106 with a drug loading of 7 drugs per antibody. Subcutaneous Panc-1 xenografts were initiated in female HRLN nu/nu mice by implanting 1 mm^3 PANC-1 tumor fragments were implanted subcutaneously into the right flank, tumor growth was monitored and mice bearing tumors of 80-120 mm^3 were selected for the study. Tumor volume was measured for each group 2× per week using calibrated vernier calipers plotted against day of first dose to produce the graph shown in FIG. 7. Among the treatment groups, no toxic effects were observed (toxicity determined as >10% weight loss during study period)."}}}
{"molecule": "B1", "values": [{"measurement": "EC50", "setting": "[1]; H520 cells (no FXYD5 surface expression), 3 days incubation", "result": "> 50", "unit": "nM"}, {"measurement": "activity on H520 cells", "setting": "[1]; H520 cells do not express dysadherin (FXYD5)", "result": "not active"}, {"measurement": "serum half-life of the antibody portion", "setting": "[2]; 1 mg/kg tail vein", "result": 11.9, "unit": "days"}, {"measurement": "serum half-life of the steroid drug portion", "setting": "[2]; 1 mg/kg tail vein", "result": 11, "unit": "days"}, {"measurement": "serum stability half-life of the EDC", "setting": "[2]; 1 mg/kg", "result": 45, "unit": "days"}, {"measurement": "serum half-life of the antibody portion", "setting": "[2]; 10 mg/kg tail vein", "result": 9.2, "unit": "days"}, {"measurement": "serum half-life of the steroid drug portion", "setting": "[2]; 10 mg/kg tail vein", "result": 8, "unit": "days"}, {"measurement": "serum stability half-life of the EDC", "setting": "[2]; 10 mg/kg", "result": 39, "unit": "days"}, {"measurement": "clinical observations", "setting": "[3]; drug loading of 2, 200 mg/kg", "result": "limb weakness at day 1 but recovered by day 3"}, {"measurement": "loss in body weight", "setting": "[3]; drug loading of 2, 200 mg/kg", "result": 25, "unit": "%"}, {"measurement": "MTD", "setting": "[3]; drug loading of 2, single dose tail vein, BALB/c mice", "result": "> 100", "unit": "mg/kg"}, {"measurement": "clinical observations", "setting": "[3]; drug loading of 5, 100 mg/kg", "result": "slight limpness and closed front limbs but recovered by day 3"}, {"measurement": "weight loss", "setting": "[3]; drug loading of 5, 100 mg/kg", "result": 27, "unit": "%"}, {"measurement": "clinical observations", "setting": "[3]; drug loading of 5, 200 mg/kg", "result": "limpness and closed front limbs and weakness at days 1 and 2"}, {"measurement": "clinical observations", "setting": "[3]; drug loading of 5, 25 and 50 mg/kg", "result": "no signs of toxicity or weight loss"}, {"measurement": "clinical observations", "setting": "[3]; drug loading of 9, 25 mg/kg", "result": "no signs of toxicity or weight loss"}, {"measurement": "clinical observations", "setting": "[3]; drug loading of 9, 50 mg/kg", "result": "slight limpness on day 2 but recovered by day 3"}, {"measurement": "weight loss", "setting": "[3]; drug loading of 9, 50 mg/kg, by day 5", "result": 30, "unit": "%"}, {"measurement": "clinical observations", "setting": "[3]; drug loading of 9, 100 and 200 mg/kg", "result": "limpness, closed front limbs and weakness by day 1 which continued through day 2"}, {"measurement": "growth inhibition of the tumor", "setting": "[4]; 0.2 mg/kg i.v. q7dx3 combined with 60 mg/kg gemcitabine i.p. q3dx5", "result": 88, "unit": "%"}, {"measurement": "tumor response", "setting": "[4]; 1 and 5 mg/kg i.v. q7dx3 combined with 60 mg/kg gemcitabine i.p. q3dx5", "result": "tumor regression"}, {"measurement": "growth inhibition of the tumor compared to vehicle", "setting": "[4]; drug loading of 8, 0.2 mg/kg i.v. q7dx3, day 28 post-initial dose", "result": 38, "unit": "%"}, {"measurement": "growth inhibition of the tumor compared to vehicle", "setting": "[4]; drug loading of 8, 1 mg/kg i.v. q7dx3, day 28 post-initial dose", "result": 48, "unit": "%"}, {"measurement": "growth inhibition of the tumor compared to vehicle", "setting": "[4]; drug loading of 8, 5 mg/kg i.v. q7dx3, day 28 post-initial dose", "result": 76, "unit": "%"}, {"measurement": "tumor response compared to vehicle group", "setting": "[5]", "result": "tumor reduction in a dose dependent manner"}]}
